According to patent US5863776A, “Method of preparing apoenzyme” (Research Development Foundation, priority 1996, dated 1999):
One block for each molecule: values may come before it.

Assays:
MAO B [1] = target: T1, MAO B (Homo sapiens, UniProt P27338); test: Quantitation of expressed MAO B protein by ELISA in transfected COS-7 cells; type: cell-based; design: MAO B Expressed: unit not given here
T1 construct: expressed in transfected cells; host or cells: COS-7 (African green monkey), riboflavin-containing (Rib+) or riboflavin-depleted (Rib-), transient electroporation
T1 sequence (P27338 1-520): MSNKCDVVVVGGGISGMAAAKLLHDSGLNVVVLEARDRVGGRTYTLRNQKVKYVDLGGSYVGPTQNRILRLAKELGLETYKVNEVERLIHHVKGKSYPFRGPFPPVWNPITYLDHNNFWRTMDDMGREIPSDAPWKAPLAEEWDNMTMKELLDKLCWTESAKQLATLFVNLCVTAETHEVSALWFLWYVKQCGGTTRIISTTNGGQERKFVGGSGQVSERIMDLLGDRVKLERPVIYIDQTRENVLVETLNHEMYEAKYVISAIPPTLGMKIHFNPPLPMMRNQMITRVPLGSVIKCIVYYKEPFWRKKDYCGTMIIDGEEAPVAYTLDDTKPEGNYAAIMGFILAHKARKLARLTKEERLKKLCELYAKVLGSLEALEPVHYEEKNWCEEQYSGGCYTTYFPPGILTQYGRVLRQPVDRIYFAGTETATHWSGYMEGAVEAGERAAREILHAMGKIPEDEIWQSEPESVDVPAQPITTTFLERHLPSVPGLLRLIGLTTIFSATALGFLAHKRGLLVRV
Experimental: (§1) Total protein concentrations of samples containing MAO B holoenzyme, apoenzyme, or variant MAO Bs were determined by a MicroBCA kit (Pierce). All samples were then adjusted to equal protein concentrations and assayed for MAO B protein by ELISA using a modification of the method of Yeomanson and Billett (25) as described previously (18).
MAO B cDNA was expressed sequentially at different time intervals in these cells during this riboflavin depletion process (FIG. 2). Each data point in FIG. 2 represents an individual expression assay. For each assay, a sample of COS-7 cells grown in riboflavin-free medium were transfected with MAO B cDNA via electroporation. Concurrently, Rib^+ COS-7 cells were transfected with MAO B cDNA to serve as a control. Following incubation for 48 hours, the cells were homogenized and assays were performed to determine protein concentration, MAO B concentration by ELISA using polyclonal antibodies, and MAO B activity using [^14 C] benzylamine.
An equal amount of MAO B cDNA (15 μg) was expressed in both types of […]

MAO B [2] = target: T1, MAO B; test: MAO B enzymatic activity in COS-7 cells during riboflavin depletion; type: cell-based
Experimental: Mammalian COS-7 cells were grown in Dulbecco's Modified Eagle Medium (DMEM, Gibco) supplemented with 10% fetal bovine serum (FBS, Gibco) at 37° C. with 5% CO2. Since this medium (DMEM+10% FBS) contains riboflavin, COS-7 cells grown in this medium were defined as riboflavin-containing COS-7 cells (Rib^+ COS-7 cells). MAO B holoenzyme was obtained by expressing MAO B cDNA in Rib^+ COS-7 cells. Mammalian COS-7 cells were also grown in riboflavin-free medium (riboflavin-free DMEM+10% dialyzed FBS, Gibco) at 37° C. with 5% CO2, with fresh riboflavin-free medium changed every 48-72 hours. COS-7 cells grown in riboflavin-free medium for longer than 100 days were defined as riboflavin-depleted (Rib^-) COS-7 cells. Apo-MAO B was obtained by expressing MAO B cDNA in Rib^- COS-7 cells. COS-7 cells were grown in riboflavin-free medium for greater than 5 months without any detectable change in morphology.
Wild-type or mutant MAO B cDNAs were transiently transfected into COS-7 cells by electroporation (23) as previously described (18). […]
MAO B activity was assayed radiometrically by a modification of the method of Wurtman and Axelrod (26) as described previously (18). […] The reaction product was extracted with 500 μl of toluene, and an aliquot (200 μl) of the organic phase from each sample was counted in liquid scintillation fluid (Bio-Safe) in a Beckman LB 3801 scintillation counter. […]

MAO B [3] = target: T1, MAO B; test: Subcellular fractionation of transfected Rib^+ and Rib^- COS-7 cells: distribution of MAO B and activity; type: cell-based; conditions: for Fraction activity: Rib^+ COS-7
Experimental: COS-7 subcellular fractionation was carried out with a modified method of Clark and Waterman (24). Transfected Rib^+ - or Rib^- COS-7 cells were harvested, washed twice with ice-cold PBS, and pelleted by microcentrifugation at 500×g for 5 minutes. The cells were then homogenized in a Dounce homogenizer. Greater than 95% of the cells were lysed, as determined by trypan blue staining. The homogenate was diluted with an equal volume of 10 mM Tris-HCl, 1 mM EDTA, pH 8.0, to obtain a 0.25M final sucrose concentration and layered over 0.5 volume of 0.5M sucrose pad (0.5M sucrose in 10 mM Tris-HCl, 1 mM EDTA, pH 8.0). The solution was centrifuged at 5,000 rpm for 3 minutes using a swinging bucket rotor (TLS.55, Beckman TL-100) to remove cell debris and nuclei (P1 fraction). The supernatant plus the interface of the 0.5M sucrose pad was again layered over another 0.5M sucrose pad, and centrifuged as above at 17,000 rpm for 20 minutes to isolate mitochondria (P2 fraction). The resulting supernatant was centrifuged at 70,000 rpm (TL100.3, Beckman TL-100) for 30 minutes to sediment microsomes (P3 fraction). The final supernatant was the cytosol (S). After subcellular fractionation, P1, P2 and P3 were resuspended in 20 mM Tris-HCl, 1 mM EDTA, 0.5 mM PMSF, 150 mM NaCl, pH 8.0. All samples were treated with Triton X-100 to extract MAO B, and then protein concentrations, MAO B concentrations and enzymatic activities were determined.
as §1
(§2) MAO B activity was assayed radiometrically by a modification of the method of Wurtman and Axelrod (26) as described previously (18). Briefly, the reaction mixture contained 200 μl of 50 mM sodium phosphate buffer (pH 7.4), 3.6 nmole of 55 mCi/mmol [^14 C] benzylamine hydrochloride (Amersham), 10 nmoles of unlabeled benzylamine and 10 μl of cell lysate. Samples were run in triplicate, and one out of each set was denatured with […] of 6N HCl prior to the addition of substrate to serve as an internal control. All reactions were incubated for 9 minutes at 37° C., and terminated by the addition of 25 μl of 6N HCl. The reaction product was extracted with 500 μl of toluene, and an aliquot (200 μl) of the organic phase from each sample was counted in liquid scintillation fluid (Bio-Safe) in a Beckman LB 3801 scintillation counter.
Transfected Rib^+ or Rib^- COS7 cells (1.2 × 10^7

MAO B [4] = target: T1, MAO B; test: FAD coupling in vitro (flavinylation assay in cell lysate, 30° C.); type: biochemical; conditions: up to 3 hours at 30° C.
Experimental: (- - - x - - - ). […] The enzymatic activity of each sample was determined at 1 hour time intervals using [^14 C] benzylamine as substrate.
Apo-MAO B was obtained by expressing MAO B cDNA in Rib^- COS-7 cells. The cells were then harvested and homogenized as described above. One half of the lysate was stirred in the presence of 0.25% Triton X-100 at 4° C. for 50 min. to extract apo-MAO B from the outer mitochondrial membrane. The second half of the lysate was not extracted with Triton X-100 to permit MAO B to remain in the membrane. […] Assays were also carried out in the presence of an energy mixture (10 mM ATP, 32 mM PEP and 2.4 μg pyruvate kinase) and 25% glycerol in the reaction vials. Each sample was run in triplicate. After 1, 2 or 3 hours incubation at 30° C., each sample was assayed for MAO B activity as described below.
as §2

MAO B [5] = target: T1, MAO B; test: FAD coupling in intact cells: MAO B enzymatic activity after electroporation of MAO B cDNA with cofactor into Rib^- COS-7 cells ([^14 C] benzylamine substrate); type: cell-based; design: Percent of Holo-MAO B Activity: concentration or dose not given beside the values
Experimental: Wild-type or mutant MAO B cDNAs were transiently transfected into COS-7 cells by electroporation (23) as previously described (18). Briefly, Rib^+ - or Rib^- COS-7 cells were harvested during late log phase growth and resuspended to a concentration of 3.1×10^6 cells/ml in either riboflavin-containing or riboflavin-free medium, respectively. Wild-type or mutant MAO B cDNAs ([…]) were added to 0.8 ml of cell suspension. […] Electroporation was carried out in a Bio-Rad Gene Pulser with a setting of 250 V and 500 μF. Cells were resuspended in 15 ml of riboflavin-containing or riboflavin-free medium and incubated at 37° C. with 5% CO2. Transfected COS-7 cells were harvested at 48 hours and homogenized in a lysis solution containing 20 mM Tris-HCl, 1 mM EDTA, 0.5 mM PMSF, pH 8.0. The homogenate was diluted with an equal volume of the same buffer supplemented with 300 mM NaCl to obtain a 150 mM final NaCl concentration. Triton X-100 (Pierce) was added to the lysate to give a final concentration of 0.25%, and the samples were allowed to stir for 50 min. at 4° C. to extract MAO B from the outer mitochondrial membrane. After Triton extraction, the lysate was centrifuged at 1300×g for 5 min. at 4° C. to remove insoluble cell debris.
as §2
FMN or riboflavin were also capable of restoring approximately 75% of MAO B holoenzyme activity. However, only 40% of MAO B holoenzyme activity was obtained by the addition of 8α-hydroxyriboflavin.
Various cofactors were added with MAO B cDNA into Rib^- COS7 cells

[6] = COS-7 cells grown in riboflavin-free medium for 76 days
[7] = Mitochondria (P2), listed as holo-MAO B
[8] = cofactor added with MAO B cDNA into Rib^- COS-7 cells, 48 hours, mean ± SE, three experiments

Molecule: monoamine oxidase B [MAO B]
Expression (MAO B [1]; [6]): 0.90 μg MAO B/mg prot. | [MAO B] (MAO B [1]; [6]): 3.70 µg/mL | Expression (MAO B [1]; Rib^+ COS-7): 0.86 μg MAO B/mg prot. | [MAO B] (MAO B [1]; Rib^+ COS-7): 3.50 µg/mL | MAO B expression level (MAO B [1]; during riboflavin depletion, regardless of time in riboflavin-free medium): 0.95±0.04 μg/mg protein | MAO B activity, % of MAO B holoenzyme activity in Rib^+ COS-7 cells (MAO B [2]; 100 days in riboflavin-free medium): less than 5% | MAO B activity (MAO B [2]; after 116 days in riboflavin-free medium): nearly undetectable

Fraction activity, percentage of total (MAO B [3]; Cell debris (P1)): 4.5% | MAO B amount (MAO B [3]; Cell debris (P1)): 58 ng | MAO B, percentage of total amount (MAO B [3]; Cell debris (P1)): 6.1% | Fraction activity, percentage of total (MAO B [3]; Cytosol (S)): 3.7% | MAO B amount (MAO B [3]; Cytosol (S)): 45 ng | MAO B, percentage of total amount (MAO B [3]; Cytosol (S)): 4.7% | Fraction activity, percentage of total (MAO B [3]; Microsome (P3)): 8.6% | MAO B amount (MAO B [3]; Microsome (P3)): 96 ng | MAO B, percentage of total amount (MAO B [3]; Microsome (P3)): 10% | Fraction activity, percentage of total (MAO B [3]; Mitochondria (P2)): 83.3% | MAO B amount (MAO B [3]; Mitochondria (P2)): 760 ng | MAO B, percentage of total amount (MAO B [3]; Mitochondria (P2)): 79.3% | Fraction activity, percentage of total (MAO B [3]; [7]): Approximately 80% | MAO B, percentage of total amount (MAO B [3]; [7]): Approximately 80% | Fraction activity (MAO B [3]; Cell debris (P1)): 0.6 10^-4 mmol/minute | Fraction activity (MAO B [3]; Cytosol (S)): 0.48 10^-4 mmol/minute | Fraction activity (MAO B [3]; Microsome (P3)): 1.11 10^-4 mmol/minute | Fraction activity (MAO B [3]; Mitochondria (P2)): 10.8 10^-4 mmol/minute | MAO B Expressed (MAO B [1]; [8]): 1.05 ± 0.25 | stability of enzymatic activity in cell lysate (MAO B [4]): remained fully active | Percent of Holo-MAO B Activity (MAO B [5]; relative to holo-MAO B expressed in Rib^+ COS-7 cells): 100%
B1: Holo-MAO B: obtained by expressing MAO B cDNA in Rib^+ COS-7 cells, which served as a positive control (protein, UniProt P27338 2-520, looked up)
Amine oxidase …: SNKCDVVVVGGGISGMAAAKLLHDSGLNVVVLEARDRVGGRTYTLRNQKVKYVDLGGSYVGPTQNRILRLAKELGLETYKVNEVERLIHHVKGKSYPFRGPFPPVWNPITYLDHNNFWRTMDDMGREIPSDAPWKAPLAEEWDNMTMKELLDKLCWTESAKQLATLFVNLCVTAETHEVSALWFLWYVKQCGGTTRIISTTNGGQERKFVGGSGQVSERIMDLLGDRVKLERPVIYIDQTRENVLVETLNHEMYEAKYVISAIPPTLGMKIHFNPPLPMMRNQMITRVPLGSVIKCIVYYKEPFWRKKDYCGTMIIDGEEAPVAYTLDDTKPEGNYAAIMGFILAHKARKLARLTKEERLKKLCELYAKVLGSLEALEPVHYEEKNWCEEQYSGGCYTTYFPPGILTQYGRVLRQPVDRIYFAGTETATHWSGYMEGAVEAGERAAREILHAMGKIPEDEIWQSEPESVDVPAQPITTTFLERHLPSVPGLLRLIGLTTIFSATALGFLAHKRGLLVRV
modifications: FAD holoenzyme
notes: obtained by expressing MAO B cDNA in Rib^+ COS-7 cells, which served as a positive control
Enzymatic Activity (MAO B [5]; [8]): 1.13 ± 0.14 μmol benzylamine/minute/mg MAO
